The values below come from US20260201038A1 (CELLABMED, published 2026).

A value given as a limit tells only on which side of the number the result lay.

Assay [1] has as its target B7-H3 on human cancer cells (human) (UniProt Q5ZPR3). Kind of assay: cell-based or functional assay.
The target in assay [2] is T1, recombinant human 2Ig B7-H3 (human, UniProt Q5ZPR3 29-466).
T1 construct: Bought recombinant protein (R&D Systems); also called 2lg B7-H3
T1 sequence: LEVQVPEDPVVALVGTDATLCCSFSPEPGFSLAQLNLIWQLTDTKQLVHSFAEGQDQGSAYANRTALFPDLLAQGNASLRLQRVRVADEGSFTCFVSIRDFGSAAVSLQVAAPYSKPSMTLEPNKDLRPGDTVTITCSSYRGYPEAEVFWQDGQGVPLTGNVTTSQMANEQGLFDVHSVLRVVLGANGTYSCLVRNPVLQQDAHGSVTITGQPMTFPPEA
Kind of assay: indirect ELISA, antigen coated at 1 ug/mL, anti-human Fc-HRP, absorbance at 450 nm. Here is the method: (§1) The binding ability of 2D IgG prepared in Example 2 for recombinant B7-H3 protein was investigated by indirect ELISA. For indirect ELISA, recombinant human 4lg B7-H3, recombinant human 2lg B7-H3 and recombinant mouse B7-H3 were diluted respectively to 1 μg/mL in 50 μL of PBS and adsorbed overnight onto a 96-well immunoplate (Corning, USA) by storing at 4° C. After reaction with a buffer solution containing 3% bovine serum albumin at room temperature for 1 hour, followed by washing 3 times with a buffer solution containing 0.5% Tween 20, each well was treated with 50 μL of the antibodies diluted serially (0.0001, 0.0003, 0.001, 0.003, 0.01, 0.03, 0.1, 0.3, 1, 3 and 10 nM). For antigen-antibody binding, the mixture was reacted at room temperature for 2 hours, and then washed 3 times with a buffer solution containing 0.5% Tween 20. After treating each well with 50 μL of anti-human immunoglobulin Fc-HRP antibodies (Jackson Immunoresearch, USA) diluted to 1:3,000, reaction was conducted at room temperature for 1 hour. […] As a result of measuring absorbance at 450 nm using a spectrophotometer (Biotek, USA), it was confirmed that 2D IgG binds to B7-H3, and the binding ability was in the order of 4lg B7-H3, 2lg B7-H3 and mouse B7-H3 (FIG. 2a).
A general note: In an ELISA, binding on a coated surface is turned into a signal by an enzyme label.

The target in assay [3] is T2, recombinant human 4Ig B7-H3 (human, UniProt Q5ZPR3 29-461, limits assumed).
T2 construct: Bought recombinant protein (Sino Biological); also called 4lg B7-H3
T2 sequence: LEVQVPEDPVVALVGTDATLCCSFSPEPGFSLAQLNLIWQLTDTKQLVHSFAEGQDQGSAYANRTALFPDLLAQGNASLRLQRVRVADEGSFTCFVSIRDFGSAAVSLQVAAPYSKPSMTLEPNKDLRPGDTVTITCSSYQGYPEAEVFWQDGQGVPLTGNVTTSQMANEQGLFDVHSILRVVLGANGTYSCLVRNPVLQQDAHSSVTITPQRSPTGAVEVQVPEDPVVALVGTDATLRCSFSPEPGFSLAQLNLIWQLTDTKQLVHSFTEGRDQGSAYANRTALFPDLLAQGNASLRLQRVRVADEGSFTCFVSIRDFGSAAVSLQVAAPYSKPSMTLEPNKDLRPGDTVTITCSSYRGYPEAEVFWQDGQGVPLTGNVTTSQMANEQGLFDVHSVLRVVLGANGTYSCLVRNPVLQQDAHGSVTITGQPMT
The description is as above. As to the method:
as §1

Assay [4] concerns the target T3, human 4Ig B7-H3 expressed on Raji cells (human) (UniProt Q5ZPR3).
T3 sequence: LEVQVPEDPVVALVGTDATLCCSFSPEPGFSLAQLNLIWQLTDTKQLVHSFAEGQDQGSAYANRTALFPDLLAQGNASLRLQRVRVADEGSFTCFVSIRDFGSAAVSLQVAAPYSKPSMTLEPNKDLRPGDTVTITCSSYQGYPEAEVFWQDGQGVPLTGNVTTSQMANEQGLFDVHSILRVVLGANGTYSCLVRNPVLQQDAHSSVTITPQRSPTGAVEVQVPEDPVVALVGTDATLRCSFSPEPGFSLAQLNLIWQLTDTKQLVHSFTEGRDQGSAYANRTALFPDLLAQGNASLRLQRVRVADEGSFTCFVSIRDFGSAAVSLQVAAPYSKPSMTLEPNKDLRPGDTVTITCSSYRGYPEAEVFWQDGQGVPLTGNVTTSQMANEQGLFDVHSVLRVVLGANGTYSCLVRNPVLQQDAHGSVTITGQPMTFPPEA
The assay is described as follows: flow cytometry on Raji cells expressing 4Ig B7-H3; the vector control Raji cells show < 2%. A general note: In flow cytometry, cells or beads pass a laser one at a time.

In assay [1], “enoblituzumab with wild-type Fc (antibody)” displayed a T cell-mediated A549 cell-killing effect (GFP fluorescence of A549 cells after 48 h co-culture with activated PBMCs; negative control group = 100) of 77.3.

B1: 2D IgG (antibody, V domains shown)
VH: AVTLDESGGGLQTPGGGLSLVCKASGFDFSSYPMVWVRQAPGKGLEYVASINSGGSWTGYGAAVKGRATISRDNGQSTVRLQLNNLRAEDTATYYCARAYGAATIDAWGHGTEVIVSS
VL: ALTQPSSVSANLGGTVKITCSGGSIGYGWYQQKAPGSAPVTVIYYNDRRPSDIPSRFSGSKSGSANTLTITGVQADDEAIYYCGSADSSSTYTGIFGAGTTLTVL
notes: Chicken/human chimeric complete antibody (full-length IgG); also called 2D complete antibody; parent antibody (2D)
In general, EC50 (read off the curve) refers to the concentration giving half of the maximal effect. On to B1, for which the “EC50 (read off the curve)” value in assay [2] is approximately 0.2 nM; in assay [3], approximately 0.006 nM.

B2: enoblituzumab (antibody, part only; not given: Constant regions, V domains shown, not shown: another chain or arm of the molecule)
VH: EVQLVESGGGLVQPGGSLRLSCAASGFTFSSFGMHWVRQAPGKGLEWVAYISSDSSAIYYADTVKGRFTISRDNAKNSLYLQMNSLRDEDTAVYYCGRGRENIYYGSRLDYWGQGTTVTVSS
VL: DIQLTQSPSFLSASVGDRVTITCKASQNVDTNVAWYQQKPGKAPKALIYSASYRYSGVPSRFSGSGSGTDFTLTISSLQPEDFATYYCQQYNNYPFTFGQGTKLEIK
B2 registered a % of cells in the positive gate (P3) in assay [4] of more than 70%.
